The test deals with T1, human VEGF-A residues 27-191 of Accession # AAV38412 (human, UniProt P15692 27-191).
T1 construct: range 27-191
The experiment in a line: SPR (BIAcore T200), cited from Table 21. The protocol:
Coupling running buffer was HBS-EP+ running buffer (10 mM HEPES, 150 mM sodium chloride, 3 mM EDTA 0.05% P-20, pH 7.4); assay running buffer was HBS-EP+ with 300 mM sodium chloride and 0.1 mg/mL BSA (Sigma A7906). […] For binding kinetics assay a series of cycles were performed, each cycle consisted of 1) mAb capture, 2) Ag or buffer injection, 3) dissociation phase and 4) regeneration. […] No capture of the antibody was made on the reference surface to serve for primary referencing and as a negative control. […] At the end of each cycle the surface was regenerated with 10 mM glycine, pH 1.5 at a flow rate of 60 μL/min in pulses of 60 and 10 sec. Binding data were fit to the 1:1 Langmuir model with mass transport term included using Biacore T200 Evaluation Software to determine the binding constants.

This note sets out measurements from patent US20150299307A1 (AbbVie / Abbott, published 2015).

T1 sequence (P15692 other isoform, or with tags, fused parts or gaps limits assumed): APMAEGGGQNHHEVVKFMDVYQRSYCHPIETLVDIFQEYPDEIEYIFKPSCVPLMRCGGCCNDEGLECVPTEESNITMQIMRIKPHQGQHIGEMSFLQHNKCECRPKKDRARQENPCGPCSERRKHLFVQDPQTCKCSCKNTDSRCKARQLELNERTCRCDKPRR

B1: bevacizumab variant H97F (taken as IgG format) (antibody, name in Kabat numbering, V domains shown)
VH: EVQLVESGGGLVQPGGSLRLSCAASGYTFTNYGMNWVRQAPGKGLEWVGWINTYTGEPTYAADFKRRFTFSLDTSKSTAYLQMNSLRAEDTAVYYCAKYPFYYGSSHWYFDVWGQGTLVTVSS
VL: DIQMTQSPSSLSASVGDRVTITCSASQDISNYLNWYQQKPGKAPKVLIYFTSSLHSGVPSRFSGSGSGTDFTLTISSLQPEDFATYYCQQYSTVPWTFGQGTKVEIKR
notes: also called H97F mutation alone
Take B1: the “fold improvement in off-rate over wild type” value is more than 6 fold.
